{"source": "the Immune Epitope Database (IEDB)", "key": {"[1]": {"biological_target": "HLA-B*39:01", "assay": "IEDB peptide-MHC binding, purified MHC/competitive/fluorescence; filed as Kd, often an IC50 or EC50 that approximates it; ≥ and ≤ were set here for values at or beyond the usual limits of such assays", "details": "source organism: Bacillus anthracis str. A0488"}, "[2]": {"biological_target": "HLA-A*26:02", "assay": "IEDB peptide-MHC binding, purified MHC/competitive/fluorescence; filed as Kd, often an IC50 or EC50 that approximates it; ≥ and ≤ were set here for values at or beyond the usual limits of such assays", "details": "source organism: Bacillus anthracis str. A0488"}, "[3]": {"biological_target": "HLA-B*15:09", "assay": "IEDB peptide-MHC binding, purified MHC/competitive/fluorescence; filed as Kd, often an IC50 or EC50 that approximates it; ≥ and ≤ were set here for values at or beyond the usual limits of such assays", "details": "source organism: Bacillus anthracis str. A0488"}, "[4]": {"biological_target": "HLA-B*07:02", "assay": "IEDB peptide-MHC binding, purified MHC/direct/fluorescence; filed as Kd, often an IC50 or EC50 that approximates it; ≥ and ≤ were set here for values at or beyond the usual limits of such assays", "details": "source organism: Bacillus anthracis"}, "[5]": {"biological_target": "HLA-A*68:02", "assay": "IEDB peptide-MHC binding, purified MHC/direct/fluorescence; filed as Kd, often an IC50 or EC50 that approximates it; ≥ and ≤ were set here for values at or beyond the usual limits of such assays", "details": "source organism: Bacillus anthracis"}, "[6]": {"biological_target": "HLA-A*02:01", "assay": "IEDB peptide-MHC binding, purified MHC/direct/fluorescence; filed as Kd, often an IC50 or EC50 that approximates it; ≥ and ≤ were set here for values at or beyond the usual limits of such assays", "details": "source organism: Bacillus anthracis"}, "[7]": {"biological_target": "HLA-B*48:01", "assay": "IEDB peptide-MHC binding, purified MHC/direct/fluorescence; filed as Kd, often an IC50 or EC50 that approximates it; ≥ and ≤ were set here for values at or beyond the usual limits of such assays", "details": "source organism: Bacillus anthracis"}, "[8]": {"biological_target": "HLA-B*57:01", "assay": "IEDB peptide-MHC binding, purified MHC/direct/fluorescence; filed as Kd, often an IC50 or EC50 that approximates it; ≥ and ≤ were set here for values at or beyond the usual limits of such assays", "details": "source organism: Bacillus anthracis"}, "[9]": {"biological_target": "HLA-A*11:01", "assay": "IEDB peptide-MHC binding, purified MHC/direct/fluorescence; filed as Kd, often an IC50 or EC50 that approximates it; ≥ and ≤ were set here for values at or beyond the usual limits of such assays", "details": "source organism: Bacillus anthracis"}, "[10]": {"biological_target": "HLA-B*08:03", "assay": "IEDB peptide-MHC binding, purified MHC/direct/fluorescence; filed as Kd, often an IC50 or EC50 that approximates it; ≥ and ≤ were set here for values at or beyond the usual limits of such assays", "details": "source organism: Bacillus cereus 03BB108"}, "[11]": {"biological_target": "HLA-A*03:01", "assay": "IEDB peptide-MHC binding, purified MHC/direct/fluorescence; filed as Kd, often an IC50 or EC50 that approximates it; ≥ and ≤ were set here for values at or beyond the usual limits of such assays", "details": "source organism: Bacillus anthracis"}, "[12]": {"biological_target": "HLA-A*26:01", "assay": "IEDB peptide-MHC binding, purified MHC/direct/fluorescence; filed as Kd, often an IC50 or EC50 that approximates it; ≥ and ≤ were set here for values at or beyond the usual limits of such assays", "details": "source organism: Bacillus cereus 03BB108"}, "[13]": {"biological_target": "HLA-B*15:02", "assay": "IEDB peptide-MHC binding, purified MHC/direct/fluorescence; filed as Kd, often an IC50 or EC50 that approximates it; ≥ and ≤ were set here for values at or beyond the usual limits of such assays", "details": "source organism: Bacillus cereus 03BB108"}, "[14]": {"biological_target": "HLA-A*01:01", "assay": "IEDB peptide-MHC binding, purified MHC/direct/fluorescence; filed as Kd, often an IC50 or EC50 that approximates it; ≥ and ≤ were set here for values at or beyond the usual limits of such assays", "details": "source organism: Bacillus anthracis"}, "[15]": {"biological_target": "HLA-B*35:01", "assay": "IEDB peptide-MHC binding, purified MHC/direct/fluorescence; filed as Kd, often an IC50 or EC50 that approximates it; ≥ and ≤ were set here for values at or beyond the usual limits of such assays", "details": "source organism: Bacillus cereus 03BB108"}, "[16]": {"biological_target": "HLA-B*46:01", "assay": "IEDB peptide-MHC binding, purified MHC/direct/fluorescence; filed as Kd, often an IC50 or EC50 that approximates it; ≥ and ≤ were set here for values at or beyond the usual limits of such assays", "details": "source organism: Bacillus anthracis"}, "[17]": {"biological_target": "HLA-B*27:05", "assay": "IEDB peptide-MHC binding, purified MHC/direct/fluorescence; filed as Kd, often an IC50 or EC50 that approximates it; ≥ and ≤ were set here for values at or beyond the usual limits of such assays", "details": "source organism: Bacillus anthracis"}, "[18]": {"biological_target": "HLA-B*15:01", "assay": "IEDB peptide-MHC binding, purified MHC/direct/fluorescence; filed as Kd, often an IC50 or EC50 that approximates it; ≥ and ≤ were set here for values at or beyond the usual limits of such assays", "details": "source organism: Bacillus anthracis"}, "[19]": {"biological_target": "HLA-B*58:01", "assay": "IEDB peptide-MHC binding, purified MHC/direct/fluorescence; filed as Kd, often an IC50 or EC50 that approximates it; ≥ and ≤ were set here for values at or beyond the usual limits of such assays", "details": "source organism: Bacillus anthracis"}, "[20]": {"biological_target": "HLA-B*15:17", "assay": "IEDB peptide-MHC binding, purified MHC/direct/fluorescence; filed as Kd, often an IC50 or EC50 that approximates it; ≥ and ≤ were set here for values at or beyond the usual limits of such assays", "details": "source organism: Bacillus anthracis"}, "[21]": {"biological_target": "HLA-A*69:01", "assay": "IEDB peptide-MHC binding, purified MHC/direct/fluorescence; filed as Kd, often an IC50 or EC50 that approximates it; ≥ and ≤ were set here for values at or beyond the usual limits of such assays", "details": "source organism: Bacillus anthracis"}, "[22]": {"biological_target": "HLA-A*31:01", "assay": "IEDB peptide-MHC binding, purified MHC/direct/fluorescence; filed as Kd, often an IC50 or EC50 that approximates it; ≥ and ≤ were set here for values at or beyond the usual limits of such assays", "details": "source organism: Bacillus anthracis"}}, "note": "pKd: −log10 of the molar value."}
{"sequence": "SQMPPQKIM", "values": [{"measurement": "pKd", "setting": "[1]", "result": 5.52}, {"measurement": "pKd", "setting": "[2]", "result": "≤ 4.70"}, {"measurement": "pKd", "setting": "[3]", "result": 6.55}, {"measurement": "pKd", "setting": "[4]", "result": "≤ 4.70"}, {"measurement": "pKd", "setting": "[5]", "result": "≤ 4.70"}, {"measurement": "pKd", "setting": "[6]", "result": "≤ 4.70"}, {"measurement": "pKd", "setting": "[7]", "result": 5.43}, {"measurement": "pKd", "setting": "[8]", "result": "≤ 4.70"}, {"measurement": "pKd", "setting": "[9]", "result": "≤ 4.70"}, {"measurement": "pKd", "setting": "[10]", "result": "≤ 4.70"}, {"measurement": "pKd", "setting": "[11]", "result": "≤ 4.70"}, {"measurement": "pKd", "setting": "[12]", "result": "≤ 4.70"}, {"measurement": "pKd", "setting": "[13]", "result": 7.66}, {"measurement": "pKd", "setting": "[14]", "result": "≤ 4.70"}, {"measurement": "pKd", "setting": "[15]", "result": 6.18}, {"measurement": "pKd", "setting": "[16]", "result": "≤ 4.70"}, {"measurement": "pKd", "setting": "[17]", "result": "≤ 4.70"}, {"measurement": "pKd", "setting": "[18]", "result": 6.90}, {"measurement": "pKd", "setting": "[19]", "result": "≤ 4.70"}, {"measurement": "pKd", "setting": "[20]", "result": "≤ 4.70"}, {"measurement": "pKd", "setting": "[21]", "result": "≤ 4.70"}, {"measurement": "pKd", "setting": "[22]", "result": "≤ 4.70"}]}
